Series [1] deals with T1, Sβ-gly from S. solfataricus strain MT-4 (Saccharolobus solfataricus, UniProt P22498). The conditions noted are these: cited from earlier work; for Km / kcat: Sβ-gly, 75° C. and pH 6.5; for efficiency of hydrolysis by Sβ-gly: in words.
The target in series [2] is his-tagged BGPh from P. horikoshii (His-BGPh) (Pyrococcus horikoshii, UniProt O58104). In kind it is biochemical. Conditions: for kcat: His-BGPh, 90° C. and pH 6.0; for efficiency of hydrolysis by His-BGPh: in words. As to the method:
(§1) The enzyme reactions were carried out at 90° C. in a solution […] containing the substrate and the purified His-BGPh in 50 mM phosphate buffer (pH 6) with 0.1% Triton X-100 and 0.3 M NaCl. For the hydrolysis of p-nitrophenyl (p-Nph) β-D-saccharides, the reaction was terminated by the addition of 1 M Na2CO3 (1 ml), then centrifuged at 15,000×g for 10 min. The concentration of the p-Nph group in the supernatant was quantified by measuring the absorbance at 400 nm. For the hydrolysis of β-D-glucoside, the released glucose was analyzed with a Glucose C-II Test kit (Wako Pure Chemicals, Japan). Initial velocities were obtained directly from the initial slopes of the time course plots. The Km and kcat values were calculated using the Michaelis-Menten equation and the least squares method (12). The subsite affinity for a long alkyl chain was determined using the method reported previously (13-15) on the basis of the subsite theory (16).

The target in series [3] is T1, Sβ-gly from S. solfataricus strain MT-4. Kind of series: Kinetic parameters of substrate hydrolysis by Sβ-gly (from references 7, 21). In kind it is biochemical, Sulfolobus solfataricus.
Substrate in series [4]: O=[N+]([O-])c1ccc(O[C@@H]2OC[C@@H](O)[C@H](O)[C@H]2O)cc1
Kind of series: purified protein, by the assay type. Type of series: biochemical. The conditions noted are these: other: His-BGPh, 90° C. and pH 6.0.

Substrate in series [5]: CCCCCCCCO[C@@H]1O[C@H](CO)[C@@H](O)[C@H](O)[C@H]1O
Kind of series: purified protein, by the assay type. In kind it is biochemical. The conditions noted are these: other: His-BGPh, 90° C. and pH 6.0.

Substrate in series [6]: O=[N+]([O-])c1ccc(O[C@@H]2O[C@H](CO)[C@@H](O)[C@H](O)[C@H]2O)cc1
Kind of series: purified protein, by the assay type. In kind it is biochemical. The conditions noted are these: other: His-BGPh, 90° C. and pH 6.0.

Substrate in series [7]: CO[C@@H]1O[C@H](CO)[C@@H](O)[C@H](O)[C@H]1O
Kind of series: purified protein, by the assay type. The conditions noted are these: other: His-BGPh, 90° C. and pH 6.0. Type of series: biochemical.

Substrate in series [8]: O=[N+]([O-])c1ccc(O[C@@H]2O[C@H](CO)[C@H](O)[C@H](O)[C@H]2O)cc1
Kind of series: purified protein, by the assay type. Type of series: biochemical. Conditions: other: His-BGPh, 90° C. and pH 6.0.

Substrate in series [9]: CCCCCCCCCCO[C@@H]1O[C@H](CO)[C@@H](O)[C@H](O)[C@H]1O
Kind of series: purified protein, by the assay type. Type of series: biochemical. The conditions noted are these: other: His-BGPh, 90° C. and pH 6.0.

Substrate in series [10]: O=[N+]([O-])c1ccc(O[C@@H]2O[C@H](CO)[C@@H](O)[C@H](O)[C@@H]2O)cc1
Kind of series: purified protein, by the assay type. In kind it is biochemical. Conditions: other: His-BGPh, 90° C. and pH 6.0.

Substrate in series [11]: CCCCCCCCCO[C@@H]1O[C@H](CO)[C@@H](O)[C@H](O)[C@H]1O
Kind of series: purified protein, by the assay type. Type of series: biochemical. The conditions noted are these: other: His-BGPh, 90° C. and pH 6.0.

Substrate in series [12]: CCCCCCO[C@@H]1O[C@H](CO)[C@@H](O)[C@H](O)[C@H]1O
Kind of series: purified protein, by the assay type. In kind it is biochemical. The conditions noted are these: other: His-BGPh, 90° C. and pH 6.0.

Substrate in series [13]: CCCCCO[C@@H]1O[C@H](CO)[C@@H](O)[C@H](O)[C@H]1O
Kind of series: purified protein, by the assay type. In kind it is biochemical. The conditions noted are these: other: His-BGPh, 90° C. and pH 6.0.

Substrate in series [14]: CCCCCCCCCCCO[C@@H]1O[C@H](CO)[C@@H](O)[C@H](O)[C@H]1O
Kind of series: purified protein, by the assay type. In kind it is biochemical. Conditions: other: His-BGPh, 90° C. and pH 6.0.

Substrate in series [15]: CCCCCCCCCCCCO[C@@H]1O[C@H](CO)[C@@H](O)[C@H](O)[C@H]1O
Kind of series: purified protein, by the assay type. In kind it is biochemical. Conditions: other: His-BGPh, 90° C. and pH 6.0.

Substrate in series [16]: OCc1ccccc1O[C@@H]1O[C@H](CO)[C@@H](O)[C@H](O)[C@H]1O
Kind of series: purified protein, by the assay type. The conditions noted are these: other: His-BGPh, 90° C. and pH 6.0.

Series [17] can be described thus: Subsite affinity of BGPh for a long alkyl chain. In kind it is biochemical. Conditions: from kcat/Km of n-Dodecyl- vs Methyl-β-D-Glcp. As to the method:
as §1

Series [18] can be described thus: Heat treatment of the purified enzyme at 95° C. In kind it is physicochemical. The conditions noted are these: 50 mM phosphate buffer (pH 6.0), 250 mM NaCl, 95° C. for 1 hour. As to the method: When the enzyme is treated in 50 mM phosphate buffer (pH 6.0) containing 250 mM NaCl at 95° C. for 1 hour, its activity is retained at the level of 80% based on the initial level. The enzyme has an optimum pH of pH 6.0 and an optimum temperature of 100° C. or higher in terms of the enzymatic activity.

Another series is described as follows: Optimum pH. In kind it is biochemical. The conditions noted are these: p-Nph-β-D-Glcp, 90° C. As to the method: The pH of the reaction mixtures ranged from 3.9 to 5.5 in sodium acetate buffer and from 5.5 to 7.99 in phosphate buffer. Optical density measurements at A405 were performed as described for the enzyme assays.
A short description of a further series: Optimum temperature. Conditions: p-Nph-β-D-Glcp; listed as purified enzyme. Type of series: biochemical. As to the method:
The enzyme reactions were carried out in duplicate at temperatures ranging from 50° C. to 100° C. for 30 min. Optical density measurements at A405 were performed as described for the enzyme assays.

Where two headings read alike, the source gives them in different places.

We go through 13 molecules from patent US6960454B2, “Methods for making and using a thermophilic enzyme as a β-glycosidase” (Director-General of Agency of Industrial Science and …, priority 1998, dated 2005).

A word on the Km: it is the substrate concentration at which the rate is half of its maximum. As usually defined, the kcat is the number of substrate molecules converted per active site and unit of time at saturation. As usually defined, the kcat/Km is the second-order rate constant that governs catalysis at low substrate concentration.

T1 sequence (P22498 whole entry N62M/R140P/N205M/N208M/A235H/V319M/K445F/G469C): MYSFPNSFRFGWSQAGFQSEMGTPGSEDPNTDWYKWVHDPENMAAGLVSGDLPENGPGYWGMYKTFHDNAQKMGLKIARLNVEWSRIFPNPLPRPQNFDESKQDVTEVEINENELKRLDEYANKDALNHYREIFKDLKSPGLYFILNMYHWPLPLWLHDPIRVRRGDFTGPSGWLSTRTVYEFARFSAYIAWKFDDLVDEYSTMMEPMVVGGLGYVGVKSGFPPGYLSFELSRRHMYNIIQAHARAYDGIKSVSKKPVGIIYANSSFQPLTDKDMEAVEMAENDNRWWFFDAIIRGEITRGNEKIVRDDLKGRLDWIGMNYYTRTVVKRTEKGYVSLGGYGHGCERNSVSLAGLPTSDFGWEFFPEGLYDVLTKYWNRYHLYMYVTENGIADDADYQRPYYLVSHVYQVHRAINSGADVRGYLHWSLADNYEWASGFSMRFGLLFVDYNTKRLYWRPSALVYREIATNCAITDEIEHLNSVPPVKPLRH

As for `O=[N+]([O-])c1ccc(O[C@@H]2O[C@H](CO)[C@@H](O)[C@H](O)[C@H]2O)cc1` [p-Nph-β-D-Glcp, p-nitrophenyl β-D-glucopyranoside], in series [1], the Km is 500 µM and the kcat is 542 s⁻¹.

Take `CCCCCCO[C@@H]1O[C@H](CO)[C@@H](O)[C@H](O)[C@H]1O` [n-Hexyl-β-D-Glcp]: in [1], the Michaelis constant (Km) is 1000 µM and the kcat was 263 s⁻¹.

As to `OCc1ccccc1O[C@@H]1O[C@H](CO)[C@@H](O)[C@H](O)[C@H]1O` [Salicin], in [1], the Km was 5000 µM and the kcat is 880 s⁻¹.

`CCCCCO[C@@H]1O[C@H](CO)[C@@H](O)[C@H](O)[C@H]1O` [n-Amyl-β-D-Glcp]: in [1], the Michaelis constant (Km) is 1100 µM and the turnover number (kcat) is 256 s⁻¹.

Consider `O=[N+]([O-])c1ccc(O[C@@H]2OC[C@@H](O)[C@H](O)[C@H]2O)cc1` [p-Nph-β-D-Xylp], for which, in series [1], the Km is 4000 µM and the kcat is 284 s⁻¹.

As to `O=[N+]([O-])c1ccc(O[C@@H]2O[C@H](CO)[C@H](O)[C@H](O)[C@H]2O)cc1` [p-Nph-β-D-Galp], in [1], the Km is 4700 µM and the kcat is 1020 s⁻¹.

As to `OC[C@H]1O[C@@H](O[C@H]2[C@H](O)[C@@H](CO)OC(O)[C@@H]2O)[C@H](O)[C@@H](O)[C@@H]1O` (some centres unmarked) [Laminaribiose], in series [1], the Km is 1000 µM. Besides, the values for the kcat in series [1] and in [2] were 908 s⁻¹ and 184 s⁻¹, respectively.

In the case of Cellobiose, in series [1], the Km was 30000 µM and the kcat was 1333 s⁻¹. For the same molecule, the kcat in series [2] worked out at 194 s⁻¹.

For `OC[C@H]1O[C@@H](O[C@H]2[C@H](O)[C@@H](O)[C@H](O[C@H]3[C@H](O)[C@@H](O)C(O)O[C@@H]3CO)O[C@@H]2CO)[C@H](O)[C@@H](O)[C@@H]1O` (some centres unmarked) [Cellotriose], in series [1], the catalytic constant (kcat) is 197 s⁻¹ and the “efficiency of hydrolysis by Sβ-gly” value is given as “high efficiency”. The Km in [1] (read-out: Km) was 3000 µM. The “efficiency of hydrolysis by His-BGPh” value in [2] is listed as “low efficiency”.

On to `OC[C@H]1O[C@@H](OC[C@H]2O[C@@H](O)[C@H](O)[C@@H](O)[C@@H]2O)[C@H](O)[C@@H](O)[C@@H]1O` [β-Gentiobiose], for which, in series [1], the kcat is 1360 s⁻¹. In addition, in series [1] (read-out: Km), the Km is 100000 µM.

As for `OC[C@H]1O[C@@H](O[C@H]2[C@H](O)[C@@H](O)[C@H](O[C@H]3[C@H](O)[C@@H](O)[C@H](O[C@H]4[C@H](O)[C@@H](O)C(O)O[C@@H]4CO)O[C@@H]3CO)O[C@@H]2CO)[C@H](O)[C@@H](O)[C@@H]1O` (some centres unmarked) [Cellotetraose], in series [1], the turnover number (kcat) is 584 s⁻¹ and the “efficiency of hydrolysis by Sβ-gly” value is listed as “high efficiency”. Also, in series [1] (read-out: Km), the Km is 1700 µM. Further, the “efficiency of hydrolysis by His-BGPh” value in series [2] is “low efficiency”.

On to `CCCCCCCCO[C@@H]1O[C@H](CO)[C@@H](O)[C@H](O)[C@H]1O` [n-Octyl-β-D-Glcp], for which, in series [1], the Km is 700 µM and the kcat was 313 s⁻¹. In [3], the “kcat/Km relative to that for laminaribiose” value amounted to 0.48 fold and the “kcat/Km relative to that for p-Nph-β-D-Glcp” value is recorded as 0.4 fold.

B1: his-tagged BGPh from P. horikoshii (His-BGPh) (Pyrococcus horikoshii OT3) (protein)
chain: MPLKFPEMFLFGTATSSHQIEGNNRWNDWWYYEQIGKLPYRSGKACNHWELYRDDIQLMTSLGYNAYRFSIEWSRLFPEENKFNEDAFMKYREIIDLLLTRGITPLVTLHHFTSPLWFMKKGGFLREENLKHWEKYIEKVAELLEKVKLVATFNEPMVYVMMGYLTAYWPPFIRSPFKAFKVAANLLKAHAIAYELLHGKFKVGIVKNIPIILPASDKERDRKAAEKADNLFNWHFLDAIWSGKYRGVFKTYRIPQSDADFIGVNYYTASEVRHTWNPLKFFFEVKLADISERKTQMGWSVYPKGIYMALKKASRYGRPLYITENGIATLDDEWRVEFIIQHLQYVHKAIEDGLDVRGYFYWSFMDNYEWKEGFGPRFGLVEVDYQTFERRPRKSAYVYGEIARSKEIKDELLKRYGLPELQL
For the molecule B1, the Michaelis constant (Km) in [4] was 100 µM; in series [5] it was 200 µM; in series [6], 350 µM; in series [7], 40740 µM; in series [8] it was 1300 µM; in series [9], 80 µM. Moreover, the Km in [11] came to 80 µM; in series [12] it was 540 µM; in series [13], 2020 µM; in [14], 50 µM; in series [15] it was 30 µM; in [16], 1960 µM. The kcat worked out at 3 s⁻¹ in series [4]; 34 s⁻¹ in series [5]; 79 s⁻¹ in series [6]; 35 s⁻¹ in series [7]; 123 s⁻¹ in series [8]; 37 s⁻¹ in series [9]. Moreover, the kcat was 2 s⁻¹ in series [10]; 39 s⁻¹ in series [11]; 33 s⁻¹ in [12]; 31 s⁻¹ in [13]; 43 s⁻¹ in series [14]; 36 s⁻¹ in series [15]. The kcat in series [16] stood at 44 s⁻¹. Moreover, the kcat/Km in series [4] was found to be 31830 M⁻¹ s⁻¹; in [5], 170700 M⁻¹ s⁻¹; in [6], 225670 M⁻¹ s⁻¹; in series [7], 850 M⁻¹ s⁻¹; in series [8] it was 94340 M⁻¹ s⁻¹; in series [9] it was 469620 M⁻¹ s⁻¹. For the same molecule, the catalytic efficiency (kcat/Km) in series [10] was 14600 M⁻¹ s⁻¹; in series [11] it was 471570 M⁻¹ s⁻¹; in series [12], 60280 M⁻¹ s⁻¹; in series [13], 15110 M⁻¹ s⁻¹; in series [14], 944370 M⁻¹ s⁻¹; in series [15], 1.1529e+06 M⁻¹ s⁻¹. For the same molecule, the kcat/Km in series [16] was determined as 22200 M⁻¹ s⁻¹. For the same molecule, in series [17], the “subsite affinity A(C11) to bind a long alkyl chain (C11)” value was 4.26 kcal/mol. Further, the “activity retained based on the initial level” value in [18] is 80%. For the same molecule, the “optimum pH” value in the series “Optimum pH” turned out to be 6.0. The same molecule displayed an optimum temperature in the series “Optimum temperature” of at least 100 °C.
